Consider one substance from PMC12434095, “LysR-type transcriptional regulator CARR represses the expression of bla CAR-2 and reduces P. diazotrophicus resistance to cefalothin, cefuroxime and cefotaxime” (Frontiers in Cellular and Infection Microbiology, 2025).

Test in all cases: purified protein
Holding throughout (type): biochemical, Phytobacter diazotrophicus

The subject of data set [1] is CO/N=C(\C(=O)N[C@@H]1C(=O)N2C(C(=O)O)=C(COC(C)=O)CS[C@H]12)c1csc(N)n1. Particulars: 50 mM HEPES pH 7.5, 25°C, 50 µM ZnSO4, 0.634 µM enzyme, kcat 0.61 in source.
For data set [2], the system named is CC(=O)OCC1=C(C(=O)O)N2C(=O)[C@@H](NC(=O)Cc3cccs3)[C@H]2SC1. Particulars: 50 mM HEPES pH 7.5, 25°C, 50 µM ZnSO4, 0.634 µM enzyme.
The test system of data set [3] is CO/N=C(\C(=O)N[C@@H]1C(=O)N2C(C(=O)O)=C(COC(N)=O)CS[C@H]12)c1ccco1. The conditions noted are these: 50 mM HEPES pH 7.5, 25°C, 50 µM ZnSO4, 1.27 µM enzyme.

With CAR-2 (Phytobacter diazotrophicus), in data set [1], the Km is on record as 33.08 µM, the Vmax turned out to be 23.4 µM/min, the kcat amounted to 0.62 s⁻¹ and the kcat/Km turned out to be 18700 M⁻¹ s⁻¹. Also, in data set [2], the Km was found to be 63.78 µM, the maximal velocity (Vmax) came out at 31.8 µM/min, the kcat was found to be 0.84 s⁻¹ and the kcat/Km turned out to be 13200 M⁻¹ s⁻¹. In data set [3], the Km is listed as 49.28 µM, the Vmax was 16.2 µM/min, the kcat was 0.21 s⁻¹ and the kcat/Km is 4260 M⁻¹ s⁻¹.
